This is an account of results in patent publication US20060252677A1.

The assay deals with T1, Protein-X (novel PSD) expressed from injected RNA in Xenopus oocytes (human) (UniProt Q5T2T1).
T1 sequence: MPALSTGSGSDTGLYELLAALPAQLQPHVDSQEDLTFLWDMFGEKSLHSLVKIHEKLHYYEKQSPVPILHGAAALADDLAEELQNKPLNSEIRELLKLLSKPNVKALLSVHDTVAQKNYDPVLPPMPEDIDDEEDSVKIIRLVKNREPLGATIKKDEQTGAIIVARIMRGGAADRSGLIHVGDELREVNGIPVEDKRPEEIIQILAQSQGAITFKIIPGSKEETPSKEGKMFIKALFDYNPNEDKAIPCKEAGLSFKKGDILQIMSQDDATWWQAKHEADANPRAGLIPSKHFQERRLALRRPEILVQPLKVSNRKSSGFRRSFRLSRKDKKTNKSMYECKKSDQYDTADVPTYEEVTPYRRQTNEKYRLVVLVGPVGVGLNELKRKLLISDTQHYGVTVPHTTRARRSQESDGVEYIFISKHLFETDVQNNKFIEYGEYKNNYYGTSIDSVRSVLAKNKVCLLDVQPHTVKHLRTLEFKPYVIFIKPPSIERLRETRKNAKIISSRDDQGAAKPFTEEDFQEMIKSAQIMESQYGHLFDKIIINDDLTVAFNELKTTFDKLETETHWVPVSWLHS
The assay is described as follows: cell-based or functional assay.

Values joined by “and” are separate entries in the source; they are usually repeats but may differ in a detail not shown here. Identical values can stand only once.

B1: PJ01087 protein (Protein-Y) expressed from injected RNA in Xenopus oocytes (protein)
chain: MRGYHGDRGSHPRPARFADQQHMDVGPAARAPYLLGSREAFSTEPRFCAPRAGLGHISPEGPLSLSEGPSVGPEGGPAGAGVGGGSSTFPRMYPGQGPFDTCEDCVGHPQGKGAPRLPPTLLDQFEKQLPVQQDGFHTLPYQRGPAGAGPGPAPGTGTAPEPRSESPSRIRHLVHSVQKLFAKSHSLEAPGKRDYNGPKAEGRGGSGGDSYPGPGSGGPHTSHHHHHHHHHHHHQSRHGKRSKSKDRKGDGRHQAKSTGWWSSDDNLDSDSGFLAGGRPPGEPGGPFCLEGPDGSYRDLSFKGRSGGSEGRCLACTGMSMSLDGQSVKRSAWHTMMVSQGRDGYPGAGPGKGLLGPETKAKARTYHYLQVPQDDWGGYPTGGKDGEIPCRRMRSGSYIKAMGDEESGDSDGSPKTSPKAVARRFTTRRSSSVDQARINCCVPPRIHPRSSIPGYSRSLTTGQLSDELNQQLEAVCGSVFGELESQAVDALDLPGCFRMRSHSYLRAIQAGCSQDDDCLPLLATPAAVSGRPGSSFNFRKAPPPIPPGSQAPPRISITAQSSTDSAHESFTAAEGPARRCSSADGLDGPAMGARTLELAPVPPRASPKPPTLIIKTIPGREELRSLARQRKWRPSIGVQVETISDSDTENRSRREFHSIGVQVEEDKRRARFKRSNSVTAGVQADLELEGLAGLATVATEDKALQFGRSFQRHASEPQPGPRAPTYSVFRTVHTQGQWAYREGYPLPYEPPATDGSPGPAPAPTPGPGAGRRDSWIERGSRSLPDSGRASPCPRDGEWFIKMLRAEVEKLEHWCQQMEREAEDYELPEEILEKIRSAVGSTQLLLSQKVQQFFRLCQQSMDPTAFPVPTFQDLAGFWDLLQLSIEDVTLKFLELQQLKANSWKLLEPKEEKKVPPPIPKKPLRGRGVPVKERSLDSVDRQRQEARKRLLAAKRAASFRHSSATESADSIEIYIPEAQTRL
B1: the current response to the ligand stimulation of the NMDA receptor in oocytes, against Protein-X alone is 7 times and 8 times.
